Substitutions are numbered along the chain they refer to. Values belong to the binder of their own block, whether it stands above or below them.
How the values were obtained:
Mouse RAGE/Fc = biological target: T1, Mouse RAGE/Fc (mouse, UniProt Q62151 24-342); assay: ELISA, HMGB1 titrated on RAGE-Fc in the presence of 0.03 µM CpG-A (right panel)
T1 construct: also called RAGE/Fc fusion; not shown: Fc part not described

[1] = biological target: T2, recombinant HMG1 purified from E. coli as a calmodulin binding protein (CBP) fusion protein (human, UniProt A9RA84 1-215 (Papio anubis entry)); assay: ELISA format 'Soluble HMG1/Captured Antibody' (squares): antibody captured on anti-human IgG Fc, HMG1 in solution
T2 construct: also called rHMG1; rHMGB1
T2 sequence: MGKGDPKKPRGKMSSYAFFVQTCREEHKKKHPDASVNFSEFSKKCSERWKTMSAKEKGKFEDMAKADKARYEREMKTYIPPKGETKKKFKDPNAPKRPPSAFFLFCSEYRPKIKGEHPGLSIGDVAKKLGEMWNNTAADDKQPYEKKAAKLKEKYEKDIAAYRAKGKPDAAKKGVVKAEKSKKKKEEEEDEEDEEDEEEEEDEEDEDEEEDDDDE
Protocol: Sandwich ELISA (soluble HMG1): Immunoplates (EIA/RIA plate, High binding, Costar) were coated with anti human IgG Fc at 10 μg/ml in PBS (pH 7.2) and incubated at 4° C. overnight. The coating reagent was removed and the plates were rinsed briefly with PBS. The plates were then blocked with 4% milk for 1 hour at 37° C. and rinsed with PBS. The anti-HMG1 antibodies were diluted in 4% milk. For serial dilutions, the antibodies were used at a starting concentration of 20 μg/ml. The diluted anti-HMG1 antibodies were then added into plate and incubated for 1 hr at 37° C. The plate was then washed 10 times with PBST (PBS/0.1% tween 20) and incubate with antigen (HMGB1, 2 μg/ml; or 0.7 μg/ml for native HMGB1) in 4% milk and incubated at 37° C. for 1 h. The plate was then wash 10 times and incubated with mouse anti-HMGB1, 1 μg/ml in 4% milk at 37° C. for 1 h. The plate was washed 10 times and incubated with anti-mouse IgG-HRP at 1:1000 at 37° C. for 1 h. The plate was then washed and developed. HRP activity was detected with Sureblue HRP substrate (KPL). Plates were read at 450 nm using a Kinetic Microplate Reader (Molecular Devices).

[2] = biological target: T3, HMG1 B Box peptide amino acids 150-183; assay: ELISA, wells coated with HMG1 B Box peptide 150-183 at 10 ug/ml
T3 peptide: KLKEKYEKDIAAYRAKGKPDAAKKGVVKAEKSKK
Protocol: (§1) The plate was then blocked with 4% milk powder dissolved in PBS at 37° C. for 1 hour. The blocking solution was removed and replaced with human anti-HMG1 antibodies at various concentrations (see FIGS. 5A-B). […] HRP activity was detected with Sureblue HRP substrate (KPL). Plates were read at 450 nm using a Kinetic Microplate Reader (Molecular Devices). […] After washing and blocking with 1% BSA in PBS, the biotinylated peptides were individually added into the avidin coated wells and incubated for 30 min at room temperature. The serial diluted antibody G4, S16 and S6 at the initial concentration at 10 μg/ml were then transferred into the wells followed by adding mouse anti human IgG-HRP conjugate (Pierce). Detection was accomplished by adding 50 μl of tetramethylbenzidine (TMB) substrate (KPL) and the absorbance was read at […].

[3] = biological target: T4, HMG1 purified from bovine (calf) thymus (bovine, UniProt P10103 2-215); assay: ELISA, wells coated with calf thymus HMGB1 at 5 ug/mL, antibody at 10 ug/mL, anti-human kappa/lambda-HRP, OD 490
T4 construct: also called Calf thymus HMGB1; thymus HMG1
T4 sequence (looked up): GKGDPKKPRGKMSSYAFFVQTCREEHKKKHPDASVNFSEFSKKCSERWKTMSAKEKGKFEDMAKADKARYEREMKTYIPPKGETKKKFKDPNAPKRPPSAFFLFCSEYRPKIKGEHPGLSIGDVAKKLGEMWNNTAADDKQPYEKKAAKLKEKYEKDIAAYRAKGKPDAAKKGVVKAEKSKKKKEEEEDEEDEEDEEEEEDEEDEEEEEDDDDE
Protocol: Binding to HMG1 vs. HMG2: Ultra high-binding ELISA plates (ThermoLab systems, #3855) were coated with either 5 ug/mL of Calf thymus HMGB1 or HMBG2 diluted in 10 mM Phosphate buffered saline (PBS), pH 7.2 and incubate overnight at 4 degrees. The plates were washed twice with Ca and Mg free PBS and 100 microliters of anti-HMGB1 antibody diluted in 10 mM PBS, pH 7.2+1% bovine serum albumin (BSA) to a final concentration of 10 ug/mL was added to each well and the plates were incubated 1 hour at room temperature. The wells were washed three times with 100 μl of PBS, pH 7.2. HRP labeled goat-anti-human IgG Kappa-chain (KPL, #14-10-10) and goat-anti-human IgG Lambda-chain (KPL, #14-10-11) were diluted in 10 mM PBS+1% BSA 1:1000 and 100 μl were added to each well and incubated for 1 hour at room temperature. The wells were then washed three times with 100 μl of PBS, pH 7.2. OPD substrate (Pierce chemical company, #34006) was prepared following the manufacturers instructions and 100 μl of prepared substrate was added to each well and the plates incubated at room temperature in the dark for 20-30 minutes. The reaction was stopped with the addition of 100 μl of 2M H₂SO₄, and the plates read on a plate reader at a wavelength of 490 nm.

[4] = biological target: T2, recombinant HMG1 purified from E. coli …; assay: cell-based or functional assay
[5] = biological target: T5, activated HMG1 prepared from LPS stimulated THP-1 cells (human, UniProt P09429 1-215); assay: cell-based or functional assay
T5 sequence (looked up): T2 sequence

[6] = biological target: T6, HMG1 B Box peptide amino acids 91-169; assay: ELISA, wells coated with HMG1 B Box peptide 91-169 at 10 ug/ml
T6 construct: also called HMG1 peptide 91-169
T6 peptide: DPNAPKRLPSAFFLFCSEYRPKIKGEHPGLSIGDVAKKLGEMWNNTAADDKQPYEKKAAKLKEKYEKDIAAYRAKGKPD
Protocol: as §1

[7] = biological target: T7, recombinant rat HMGB-1, Europium-labeled (rat, UniProt P63159 1-215, limits assumed, Europium label, molar ratio of HMGB-1 to Eu 1:5); assay: inhibition of binding of Eu-labeled HMGB-1 to THP-1 cells
T7 construct: also called Europium-labeled HMGB-1; recombinant HMG1 (Thp-1 assay)
T7 sequence (looked up): T2 sequence with E189D, D202E
Protocol: HMG1 binding to THP-1 Cells: Recombinant rat HMGB-1 was labeled using Eu-labelling Kit from PerkinElmer. Molar ratio of HMGB-1 to Eu is 1:5. THP-1 were cultured as the protocol from ATCC. Cells were harvested and suspended at concentration 1×10⁶/ml in assay buffer containing 1×DELFIA L*R binding buffer (PerkinElmer), 50% of DELFIA stabilizer (PerkinElmer) and 0.05% of sodium azide. 100 μl of cells (1×10⁵) was added into wells in 96 well cell culture plate. The plate was incubated with gentle shaking at 4° C. for one hour. 100 μl of assay buffer containing 2 nM of Europium-labeled HMGB-1 mixed with various concentrations (333, 166.5, 83.25, 41.6, 20.8, 10.4 and 5.2 nM) of human anti-HMGB1 antibodies E11 or G2 or soluble human RAGE-Fc, were added into each wells respectively. After one hour incubation with gentle shaking at 4° C., the cells were washed four times with 1×L*R wash buffer (PerkinElmer) by centrifuging at 1200 rpm×5 min. 200 μl of enhancement solution was added into each well to dissociate and enhance Eu fluorescence at 615 nm. The fluorescence was measured with Wallac Victor Fluorometer. Assay was performed in triplicate and human antibody R3-47 was used the negative isotype control.

[8] = biological target: T8, HMGB1 in human brain tissue of multiple sclerosis plaques (human, UniProt P09429 1-215); assay: staining of human brain tissue
T8 construct: also called HMGB1 (MS plaques)
T8 sequence (looked up): T2 sequence

[9] = biological target: T2, recombinant HMG1 purified from E. coli …; assay: BIAcore, mAb immobilized, HMG1 injected, steady-state model
Protocol: HMG1 Binding Affinity via BIAcore Analysis: All experiments were performed on a BIAcore 3000 instrument (BIAcore, Inc., Piscataway, N.J.). Briefly, each mAb was immobilized to a CM5 sensor chip using a standard amino coupling chemistry. Separately a reference (control) flow cell was also prepared. Two-fold, serial dilutions of HMG1 in instrument buffer were sequentially injected at a slow flow rate over the individual mAb and reference flow-cell surfaces. Following the binding and dissociation of HMG1, the mAbs surfaces were regenerated with a brief pulse of 1M NaCl-50 mM NaOH. At the end of each experiment, the binding curves were evaluated using a steady-state model available through the BIA evaluation software supplied by BIAcore, Inc. (Piscataway, N.J.).

[10] = biological target: T6, HMG1 B Box peptide amino acids 91-169; assay: ELISA, wells coated with HMG1 B Box peptide 91-169 at 10 ug/ml, anti-human IgG-HRP, OD 450
Protocol: as §1

[11] = biological target: T3, HMG1 B Box peptide amino acids 150-183; assay: ELISA, wells coated with HMG1 B Box peptide 150-183 at 10 ug/ml, anti-human IgG-HRP, OD 450
Protocol: as §1

T1 sequence (Q62151 24-342): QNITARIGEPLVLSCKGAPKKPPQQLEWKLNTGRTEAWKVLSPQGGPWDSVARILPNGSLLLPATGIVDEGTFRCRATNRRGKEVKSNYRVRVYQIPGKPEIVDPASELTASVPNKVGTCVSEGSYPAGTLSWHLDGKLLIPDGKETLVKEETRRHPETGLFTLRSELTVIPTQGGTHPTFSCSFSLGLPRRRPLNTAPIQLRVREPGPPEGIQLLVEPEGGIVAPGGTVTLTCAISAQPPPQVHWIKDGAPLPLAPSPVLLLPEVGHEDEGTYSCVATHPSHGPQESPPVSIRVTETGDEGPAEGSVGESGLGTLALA

EC50 (read off the curve) (Mouse RAGE/Fc): ~100 nM
B1: HMGB1/CpG-A complex (other, bovine, UniProt P10103 2-215, looked up)
chain: T4 sequence (looked up)
notes: also called HMGB1/CpG complex; CpG/HMGB1 complex

EC50 (read off the curve) [1]: ~0.4 µg/mL | binding result [2]: no binding (tested: 10 ug/ml (log 1.00)) | binding result [3]: binds | IC50, inhibition of HMG1 stimulated NO release from macrophages [4]: 101 µg/mL | IC50, inhibition of rHMG1 stimulated IL-6 release from human PBMC [4]: 1.22 nM | IC50, inhibition of native activated HMG1 stimulated IL-6 release from human PBMC [5]: 1.73 nM | binding result [6]: no binding (tested: 10 ug/ml (log 1.00)) | IC50 [7]: 48.1 nM
B2: anti-HMG1 antibody E11 (antibody, V domains shown)
VH: EVQLLESGGGLVQPGGSLRLSCAASGFTFSRYQMNWVRQAPGKGLEWVSSISPSGGHTHYADSVKGRFTISRDNSKNTLYLQMNSLRAEDTAVYYCAKDGRQGKISTVDHWGQGTLVTVSS
VL: DIQMTQSPGTLSLSPGERATLSCRASQSVRSNFLAWYQQKPGQAPRLLIYGASRRASGIPDRFSGSGFGADFTLSISRLEPEDFAVYYCQQYGSSPNTFGQGSRVEIK

The remaining lines, values behind:

B3: anti-HMG1 antibody G16 (antibody, V domains shown)
VH: EVQLLESGGGLVQPGGSLRLSCAASGFTFSWYKMTWVRQAPGKGLEWVSSISPSGGFTSYADSVKGRFTISRDNSKNTLYLQMNSLRAEDTAVYYCARDLDIRHAFDIWGQGTMVTVSS
VL: DIQMTQSPGTLSLSPGESGTLSCRASESVSSRHFAWYQQKPGQAPRLLIYGASSRPTGIPDRFSGSGSGTDFTLTLSRLEPEDFAVYFCQYYGSSPYTFGGGTKVEMK
binding result [8]: binds | binding result [2]: no binding (tested: 10 ug/ml (log 1.00)) | IC50, inhibition of HMG1 stimulated NO release from macrophages [4]: 22 µg/mL | IC50, inhibition of rHMG1 stimulated IL-6 release from human PBMC [4]: 1.06 nM | binding result [6]: no binding (tested: 10 ug/ml (log 1.00)) | Kd [9]: 22 nM

B4: anti-HMG1 antibody S12 (antibody, V domains shown)
VH: EVQLLESGGGLVQPGGSLRLSCAASGFTFSKYIMHWVRQAPGKGLEWVSGIVPSGGLTEYADSVKGRFTISRDNSKNTLYLQMNSLRAEDTATYYCAKEIFGQFDYWGQGTLVTVSS
VL: AQSALTQPPSVSAAPRQRVTISCSGSTSNIGNNAVTWYQYFPGKAPKLLIYSDNQRPSGVPDRFSGSKSGTSASLAITGLQAEDEADYYCQSYDRGLSVVFGGGTKLTVL
binding result [3]: binds | IC50, inhibition of rHMG1 stimulated IL-6 release from human PBMC [4]: 1.67 nM | binding result [10]: binds | binding result [11]: binds

Source: patent US20080311122A1 (AstraZeneca / MedImmune, published 2008)
